Laboratory results: patent US20220242958A1 (published 2022)
Changes are numbered by the printed parent chain. In names and notes the source's numbering stands.

T1: recombinant IL-3Rα ectodomain (UniProt P26951 19-305, limits assumed)
T1 construct: extracellular domain; also called IL-3Ra ectodomain; recombinant IL-3Ra
T1 sequence (looked up): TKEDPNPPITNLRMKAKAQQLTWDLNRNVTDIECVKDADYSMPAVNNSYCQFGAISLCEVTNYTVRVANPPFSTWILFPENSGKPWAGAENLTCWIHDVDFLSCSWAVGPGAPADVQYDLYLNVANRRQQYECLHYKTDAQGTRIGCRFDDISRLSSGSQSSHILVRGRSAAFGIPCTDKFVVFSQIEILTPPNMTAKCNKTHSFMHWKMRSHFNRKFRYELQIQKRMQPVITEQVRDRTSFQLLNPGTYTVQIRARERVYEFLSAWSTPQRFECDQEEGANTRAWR

B1: IL12Rb1#30-CD4#8 (bispecific antibody)
chain: EVQLVESGGGLVQTGGSLRLSCAASGRTPRLVAMGWFRQTPGKEREFVGEIILSKGFTYYADSVKGRFTISRVNAKNTITMYLQMNSLKSEDTAVYYCAGRQNWSGSPARTNEYEYWGQGTLVTVSSGGGGSGGGGSGGGGSGGGGSGGGGSGGGGSGGGGSEVQLVESGGGSVQPGGSLTLSCGTSGRTFNVMGWFRQAPGKEREFVAAVRWSSTGIYYTQYADSVKSRFTISRDNAKNTVYLEMNSLKPEDTAVYYCAADTYNSNPARWDGYDFRGQGTLVTVSS
notes: also called BI#46; T023200046
B2: IL12Rb1#31-CD4#8 (bispecific antibody)
chain: B1 chain with R30S, L31I, V32I, V73A, G100A, S107N, A109T
notes: also called BI#47; T023200047
B3: CD4#8-IL12Rb1#30 (bispecific antibody)
chain: EVQLVESGGGSVQPGGSLTLSCGTSGRTFNVMGWFRQAPGKEREFVAAVRWSSTGIYYTQYADSVKSRFTISRDNAKNTVYLEMNSLKPEDTAVYYCAADTYNSNPARWDGYDFRGQGTLVTVSSGGGGSGGGGSGGGGSGGGGSGGGGSGGGGSGGGGSEVQLVESGGGLVQTGGSLRLSCAASGRTPRLVAMGWFRQTPGKEREFVGEIILSKGFTYYADSVKGRFTISRVNAKNTITMYLQMNSLKSEDTAVYYCAGRQNWSGSPARTNEYEYWGQGTLVTVSS
notes: also called BI#40; T023200040
B4: CD4#8-IL12Rb1#31 (bispecific antibody)
chain: B3 chain with R190S, L191I, V192I, V233A, G260A, S267N, A269T
notes: also called BI#41; T023200041
B5: CD4#8-IL23R#19 (bispecific antibody)
chain: EVQLVESGGGSVQPGGSLTLSCGTSGRTFNVMGWFRQAPGKEREFVAAVRWSSTGIYYTQYADSVKSRFTISRDNAKNTVYLEMNSLKPEDTAVYYCAADTYNSNPARWDGYDFRGQGTLVTVSSGGGGSGGGGSGGGGSGGGGSGGGGSGGGGSGGGGSEVQLVESGGGLVQPGGSLTLSCVASGRTFSTDVMGWFRQAPGKEREFVAAHRTSGISTVYAASVKGRFTISRDNAKNTVYLGMKSLKPEDTAVYVCAAGSDASGGYDYWGQGTLVTVSS
notes: also called BI#45; T023200045
B6: CD4#8-IL23R#20 (bispecific antibody)
chain: EVQLVESGGGSVQPGGSLTLSCGTSGRTFNVMGWFRQAPGKEREFVAAVRWSSTGIYYTQYADSVKSRFTISRDNAKNTVYLEMNSLKPEDTAVYYCAADTYNSNPARWDGYDFRGQGTLVTVSSGGGGSGGGGSGGGGSGGGGSGGGGSGGGGSGGGGSEVQLVESGGGLVQAGGSLRLSCAASGRTFSSYAMGWFRQAPGKDREFVAAISWIGESTYYADSVKGRFTISRDNAKNTVYLRMNSLKPEDTAVYYCAADLYYTAYVAAADEYDYWGQGTLVTVSS
notes: also called BI#44; T023200044
B7: IL23R#20-CD4#8 (bispecific antibody)
chain: EVQLVESGGGLVQAGGSLRLSCAASGRTFSSYAMGWFRQAPGKDREFVAAISWIGESTYYADSVKGRFTISRDNAKNTVYLRMNSLKPEDTAVYYCAADLYYTAYVAAADEYDYWGQGTLVTVSSGGGGSGGGGSGGGGSGGGGSGGGGSGGGGSGGGGSEVQLVESGGGSVQPGGSLTLSCGTSGRTFNVMGWFRQAPGKEREFVAAVRWSSTGIYYTQYADSVKSRFTISRDNAKNTVYLEMNSLKPEDTAVYYCAADTYNSNPARWDGYDFRGQGTLVTVSS
notes: also called BI#43; T023200043
B8: 55A01-14D09 (A0110055A01-35GS-4CXCR014D09(Q108L)) (bispecific antibody)
chain: EVQLVESGGGSVQAGGSLRLSCTTSGRALNMYVMGWFRQAPGNEREFVAATSSSGGSTSYPDSVKGRFTISRDNAKNTVYLQMNSLKPEDTAAYRCAASPYVSTPTMNILEEYRYWGQGTLVTVSSGGGGSGGGGSGGGGSGGGGSGGGGSGGGGSGGGGSEVQLVESGGGLVQAGGSLRLSCVASGISSSKRNMGWYRQAPGKQRESVATISSGGNKDYTDAVKDRFTISRDTTKNTVYLQMNSLKPEDTAVYYCKIEAGTGWATRRGYTYWGQGTLVTVSSAAAEQKLISEEDLNGAAHHHHHH
notes: the entry carries a c-myc-His6 tag; also made as Flag3-His6-tagged protein; also called CD123#2-CXCR4#1; BI#8/22
B9: 281F12-55A01 (4CXCR281F12(Q108L)-35GS-A0110055A01) (bispecific antibody)
chain: EVQLVESGGGLVQAGDSLRLSCAASGRAFSRYAMGWFRQAPGKEREFVAAIGWGPSKTNYADSVKGRFTISRDNAKNTVYLQMNTLKPEDTAVYSCAAKFVNTDSTWSRSEMYTYWGQGTLVTVSSGGGGSGGGGSGGGGSGGGGSGGGGSGGGGSGGGGSEVQLVESGGGSVQAGGSLRLSCTTSGRALNMYVMGWFRQAPGNEREFVAATSSSGGSTSYPDSVKGRFTISRDNAKNTVYLQMNSLKPEDTAAYRCAASPYVSTPTMNILEEYRYWGQGTLVTVSSAAAEQKLISEEDLNGAAHHHHHH
notes: the entry carries a c-myc-His6 tag; also made as Flag3-His6-tagged protein; also called CXCR4#2-CD123#2; BI#3/17
B10: 281F12-57A07 (4CXCR281F12(Q108L)-35GS-A0110057A07) (bispecific antibody)
chain: EVQLVESGGGLVQAGDSLRLSCAASGRAFSRYAMGWFRQAPGKEREFVAAIGWGPSKTNYADSVKGRFTISRDNAKNTVYLQMNTLKPEDTAVYSCAAKFVNTDSTWSRSEMYTYWGQGTLVTVSSGGGGSGGGGSGGGGSGGGGSGGGGSGGGGSGGGGSEVQLVESGGGLVQAGGSLRLSCAASGSIFSGNVMGWYRRQAPGKEREWVAAIASGGSIYYRDSVKGRFTISRDNAKNTVYLQMNSLKPEDTAVYYCNSHPPTLPYWGQGTLVTVSSAAAEQKLISEEDLNGAAHHHHHH
notes: the entry carries a c-myc-His6 tag; also made as Flag3-His6-tagged protein; also called CXCR4#2-CD123#1; BI#4/18
B11: 57A07-14D09 (A0110057A07-35GS-4CXCR014D09(Q108L)) (bispecific antibody)
chain: EVQLVESGGGLVQAGGSLRLSCAASGSIFSGNVMGWYRRQAPGKEREWVAAIASGGSIYYRDSVKGRFTISRDNAKNTVYLQMNSLKPEDTAVYYCNSHPPTLPYWGQGTLVTVSSGGGGSGGGGSGGGGSGGGGSGGGGSGGGGSGGGGSEVQLVESGGGLVQAGGSLRLSCVASGISSSKRNMGWYRQAPGKQRESVATISSGGNKDYTDAVKDRFTISRDTTKNTVYLQMNSLKPEDTAVYYCKIEAGTGWATRRGYTYWGQGTLVTVSSAAAEQKLISEEDLNGAAHHHHHH
notes: the entry carries a c-myc-His6 tag; for the cell assays the construct was recloned and made in Pichia as Flag3-His6-tagged protein; also called CD123#1-CXCR4#1; BI#11/23
B12: 55A01-281F12 (A0110055A01-35GS-4CXCR281F12(Q108L)) (bispecific antibody)
chain: EVQLVESGGGSVQAGGSLRLSCTTSGRALNMYVMGWFRQAPGNEREFVAATSSSGGSTSYPDSVKGRFTISRDNAKNTVYLQMNSLKPEDTAAYRCAASPYVSTPTMNILEEYRYWGQGTLVTVSSGGGGSGGGGSGGGGSGGGGSGGGGSGGGGSGGGGSEVQLVESGGGLVQAGDSLRLSCAASGRAFSRYAMGWFRQAPGKEREFVAAIGWGPSKTNYADSVKGRFTISRDNAKNTVYLQMNTLKPEDTAVYSCAAKFVNTDSTWSRSEMYTYWGQGTLVTVSSAAAEQKLISEEDLNGAAHHHHHH
notes: the entry carries a c-myc-His6 tag; also made as Flag3-His6-tagged protein; also called CD123#2-CXCR4#2; BI#15/24
B13: 14D09-55A01 (4CXCR014D09(Q108L)-35GS-A0110055A01) (bispecific antibody)
chain: EVQLVESGGGLVQAGGSLRLSCVASGISSSKRNMGWYRQAPGKQRESVATISSGGNKDYTDAVKDRFTISRDTTKNTVYLQMNSLKPEDTAVYYCKIEAGTGWATRRGYTYWGQGTLVTVSSGGGGSGGGGSGGGGSGGGGSGGGGSGGGGSGGGGSEVQLVESGGGSVQAGGSLRLSCTTSGRALNMYVMGWFRQAPGNEREFVAATSSSGGSTSYPDSVKGRFTISRDNAKNTVYLQMNSLKPEDTAAYRCAASPYVSTPTMNILEEYRYWGQGTLVTVSSAAAEQKLISEEDLNGAAHHHHHH
notes: the entry carries a c-myc-His6 tag; also made as Flag3-His6-tagged protein; also called CXCR4#1-CD123#2; BI#7/19
B14: 14D09-57A07 (4CXCR014D09(Q108L)-35GS-A0110057A07) (bispecific antibody)
chain: EVQLVESGGGLVQAGGSLRLSCVASGISSSKRNMGWYRQAPGKQRESVATISSGGNKDYTDAVKDRFTISRDTTKNTVYLQMNSLKPEDTAVYYCKIEAGTGWATRRGYTYWGQGTLVTVSSGGGGSGGGGSGGGGSGGGGSGGGGSGGGGSGGGGSEVQLVESGGGLVQAGGSLRLSCAASGSIFSGNVMGWYRRQAPGKEREWVAAIASGGSIYYRDSVKGRFTISRDNAKNTVYLQMNSLKPEDTAVYYCNSHPPTLPYWGQGTLVTVSSAAAEQKLISEEDLNGAAHHHHHH
notes: the entry carries a c-myc-His6 tag; also made as Flag3-His6-tagged protein; also called CXCR4#1-CD123#1; BI#16/20
B15: 57A07-281F12 (A0110057A07-35GS-4CXCR281F12(Q108L)) (bispecific antibody)
chain: EVQLVESGGGLVQAGGSLRLSCAASGSIFSGNVMGWYRRQAPGKEREWVAAIASGGSIYYRDSVKGRFTISRDNAKNTVYLQMNSLKPEDTAVYYCNSHPPTLPYWGQGTLVTVSSGGGGSGGGGSGGGGSGGGGSGGGGSGGGGSGGGGSEVQLVESGGGLVQAGDSLRLSCAASGRAFSRYAMGWFRQAPGKEREFVAAIGWGPSKTNYADSVKGRFTISRDNAKNTVYLQMNTLKPEDTAVYSCAAKFVNTDSTWSRSEMYTYWGQGTLVTVSSAAAEQKLISEEDLNGAAHHHHHH
notes: the entry carries a c-myc-His6 tag; also made as Flag3-His6-tagged protein; also called CD123#1-CXCR4#2; BI#10/21

target: T2, human CD4, cell-expressed (human, UniProt P01730 26-458); assay: FACS, MOLM-13 cells
T2 construct: whole, on cells

Binder	binding result
B1	binds
B2	binds
B3	binds
B4	binds
B5	binds
B6	binds
B7	binds

target: T1, recombinant IL-3Rα ectodomain; assay: ELISA, recombinant IL-3Ra

Binder	binding result
B8	binds
B9	binds
B10	binds
B11	binds
B12	binds
B13	binds
B14	binds
B15	binds

target: human CXCR4 (on cells, membrane extracts or viral lipoparticles) (human, UniProt P61073 1-352); assay: cell-based or functional assay
Sequence (P61073 whole entry): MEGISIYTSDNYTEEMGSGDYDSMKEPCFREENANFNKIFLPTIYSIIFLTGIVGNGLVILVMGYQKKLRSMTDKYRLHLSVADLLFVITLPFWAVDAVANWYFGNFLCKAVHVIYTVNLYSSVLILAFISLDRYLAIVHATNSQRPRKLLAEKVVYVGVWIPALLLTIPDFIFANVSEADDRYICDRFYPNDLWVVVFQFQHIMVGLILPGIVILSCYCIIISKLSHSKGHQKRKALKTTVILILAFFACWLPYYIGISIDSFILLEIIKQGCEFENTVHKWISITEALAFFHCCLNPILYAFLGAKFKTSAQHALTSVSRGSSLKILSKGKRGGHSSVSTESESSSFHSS

Binder	Fold inc. vs anti-CXCR4 building block, Jurkat E6-1 [fold]	Fold inc. vs anti-CXCR4 building block, MOLM-13 [fold]	IC50, CXCL-12 induced chemotaxis, Jurkat E6-1 [nM]	IC50, CXCL-12 induced chemotaxis, MOLM-13 [nM]
B8	0.12	0.03	85	290
B9	1.13	10.9	86	7.85
B10	2.55	12.6	38	6.83
B11	0.05		210	
B13	0.87	2.39	12	3.6
B14	0.69	2.39	15	3.6
